Results on 5 substances are retold here after paper PMC7698382.

Assay [1] has as its target Purified human plasmin (human). The assay can be described thus: protease inhibition assay (residual amidolytic activity, tight-binding inhibitor fit); enzyme (plasmin 3 nM; FVIIa/sTF 20 nM; pKLK and FXIa 1 nM each) incubated with inhibitor (10^-1 to 2 x 10^3 nM; up to 3 µM in Figure 3B) for 1 h at room temperature in TBS pH 7.5 (50 mM Tris-HCl, 100 mM NaCl), 0.1 mg BSA/mL, 2 mM Ca2+; synthetic substrate added to 1 KM; Ki corrected for substrate.

The target in assay [2] is Purified human factor XIa (human) (UniProt P03951). The description is as above.
In another assay the target is Plasma kallikrein (UniProt P03952). Described as above.
In assay [3] the target is Human factor VIIa in complex with soluble tissue factor (sTF, residues 1-219) (UniProt P08709). Described as above.
For assay [4], the target named is Tissue plasminogen activator (Alteplase) (UniProt P00750). The assay can be described thus: SPR; Biacore T100, 25 °C; DIP-δplasmin or tPA amine-coupled to CM5 chip; analyte KD1-Y11T/L17R-K_(COOH) 100 to 2000 nM in HBS-P (20 mM HEPES pH 7.4, 100 mM NaCl, 0.005% P20), 10 µL/min, 6 min association, 10 min dissociation; regenerated with 20 mM EACA; 1:1 binding model, Kd = kd/ka.

The target in assay [5] is DIP-δplasmin (active-site blocked δplasmin; recombinant plasmin containing the protease domain and the first kringle domain, treated with DFP). The assay is described as above.

For the substance “KD1-L17R-K_(COOH) (60-residue single mutant of human TFPI-2 Kunitz domain 1 with C-terminal IEK), E. coli expressed (domain or fragment)”, in assay [1], the Ki came out at 0.9 nM.

For the substance “KD1-Y11T/L17R-K_(COOH) (60-residue double mutant of human TFPI-2 Kunitz domain 1 with C-terminal IEK), E. coli expressed (domain or fragment)”, the Ki in assay [1] came out at 0.59 nM. Compared with the last substance, the Ki is about 1.5-fold lower.

Take “KD1-Y11T/L17R-K_(COOH) (60-residue double mutant of human TFPI-2 Kunitz domain 1 with C-terminal IEK), Pichia pastoris expressed (domain or fragment)”: the Ki in assay [1] came out at 0.59 nM.

In the case of “KD1-Y11T/L17R-K_(COOH) (60-residue double mutant of human TFPI-2 Kunitz domain 1 with C-terminal IEK), expression host not stated for the experiment (domain or fragment)”, the Ki (in assay [2]; with Plasma kallikrein; in assay [3]) was over 3000 nM in each case. Besides, the Kd in assay [4] was 35.4 nM; in assay [5] it was 47.6 nM. Moreover, the koff was 0.000105 s⁻¹ in assay [4] and 7.13e-05 s⁻¹ in assay [5]. The results for the kon in assay [4] and in assay [5] were 2910 M⁻¹ s⁻¹ and 1490 M⁻¹ s⁻¹, respectively.

Substance “Wild-type KD1 (Kunitz domain 1 of human tissue factor pathway inhibitor type-2) containing the IIa cleavage site (domain or fragment)” had an inhibitory constant (Ki) in assay [1] of 6 nM.
